Reference: US20150197796, “SSB METHOD” (OXFORD NANOPORE TECHNOLOGIES LIMITED, published 2015)

Molecular target: EcoSSB-WT (Escherichia coli, UniProt P0AGE0 SEQ:1-177)
Assay: EMSA; 5% TBE gel
Conditions: tags: N-terminal His6-TEV site removed; commercial EcoSSB-WT also run; chain copies: 4 stated (homotetramer in solution)

B1: 70mer polyT (ssDNA)
DNA: TTTTTTTTTTTTTTTTTTTTTTTTTTTTTTTTTTTTTTTTTTTTTTTTTTTTTTTTTTTTTTTTTTTTTT
- binding result: binds
